From patent US20110015138A1 (GENUS ONCOLOGY, published 2011)
Blank lines part the entries; values can stand above or below the binder they belong to. Ends that are not written are not given here.

Experiments:
GST-IκBα = target: T1, GST-IκBα (UniProt P25963 1-317); assay: GST pull-down of purified p65(1-180), immunoblot anti-p65
T1 construct: Bought (Millipore, Billerica, Mass.); not shown: glutathione S-transferase (GST) fusion moiety
T1 sequence (looked up): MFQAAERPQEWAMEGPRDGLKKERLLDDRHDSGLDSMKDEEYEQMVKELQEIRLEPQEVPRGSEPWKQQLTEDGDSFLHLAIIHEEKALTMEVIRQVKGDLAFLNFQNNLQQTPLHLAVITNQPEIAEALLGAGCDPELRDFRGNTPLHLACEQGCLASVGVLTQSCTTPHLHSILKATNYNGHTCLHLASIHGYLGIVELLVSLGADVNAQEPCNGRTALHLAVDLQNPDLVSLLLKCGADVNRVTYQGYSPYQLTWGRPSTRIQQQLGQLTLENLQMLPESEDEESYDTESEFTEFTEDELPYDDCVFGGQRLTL

[1] = target: T2, purified recombinant NF-κB p65 (UniProt Q04206 1-551, limits assumed); assay: GST pull-down of purified recombinant p65, immunoblot anti-p65
T2 construct: also called purified NF-κB p65

[2] = target: purified recombinant STAT3 (UniProt P40763 1-770, limits assumed); assay: GST pull-down of purified recombinant STAT3, immunoblot anti-STAT3
Experimental: (§1) FIGS. 9A-D: MUC1-C binds directly to the STAT3 DBD. (FIG. 9A) Lysates from ZR-75-1 (left) and MCF-7 (right) cells were subjected to immunoprecipitation with anti-STAT3 or a control IgG. The precipitates were immunoblotted with the indicated antibodies. (FIG. 9B) Lysates from ZR-75-1 cells were incubated with GST and GST-MUC1-CD bound to glutathione beads. The adsorbates were immunoblotted with anti-STAT3 Input of the GST and GST-MUC1-CD proteins was assessed by Coomassie blue staining. (FIG. 9C) Amino acid sequence of the MUC1 cytoplasmic domain is shown with the indicated phosphorylation and binding sites. GST, GST-MUC1-CD, GST-MUC1-CD (1-45) and GST-MUC1-CD (46-72) bound to glutathione beads were incubated with purified recombinant STAT3. The adsorbates were immunoblotted with anti-STAT3. Input of the GST and GST-MUC1-CD fusion proteins was assessed by Coomassie blue staining. (FIG. 9D) Structure of STAT3. GST, GST-STAT3 (full length; amino acids 1-770), […], […] and […] bound to glutathione beads were incubated with purified MUC1-CD. Adsorbates were immunoblotted with anti-MUC1-C. Input of the GST and GST-STAT3 fusion proteins was assessed by Coomassie blue staining.
(§2) MUC1-C directly interacts with STAT3. […]

[3] = target: T3, GST-STAT3 (N-terminal; amino acids 1-257) (UniProt P40763 1-257); assay: GST-STAT3 deletion mutants on glutathione beads incubated with purified MUC1-CD, immunoblot anti-MUC1-C
T3 construct: range 1-257; The legend names it GST-MUC1-CD, but the text and the end of the legend speak of STAT3 deletion mutants / GST-STAT3 fusion proteins; also called dimerization domain; printed in the legend as GST-MUC1-CD (N-terminal: amino acids 1-257); not shown: glutathione S-transferase (GST) fusion moiety
Experimental: as §1, §2

[4] = target: T4, GST-STAT3 (C-terminal; amino acids 514-770) (UniProt P40763 514-770); assay: as above
T4 construct: range 514-770; The legend names it GST-MUC1-CD, but the text and the end of the legend speak of STAT3 deletion mutants / GST-STAT3 fusion proteins; also called printed in the legend as GST-MUC1-CD (C-terminal); not shown: glutathione S-transferase (GST) fusion moiety
Experimental: as §1, §2

[5] = target: T5, STAT3 (in cells / cell lysates) (human, UniProt P40763 2-770); assay: co-immunoprecipitation with anti-STAT3 from ZR-75-1 and MCF-7 cell lysates, immunoblot anti-MUC1-C
T5 construct: Endogenous protein of the cell lines
Experimental: as §1, §2

[6] = target: T6, NF-κB p65 (in cells / cell lysates) (human, UniProt Q04206 1-551); assay: co-immunoprecipitation with anti-p65 from ZR-75-1, MCF-7 and U-937/MUC1-C cell lysates, immunoblot anti-MUC1-C
T6 construct: Endogenous protein of the cell lines
Experimental: Immunoprecipitation and immunoblotting. Lysates from sub-confluent cells were prepared as described (Ren et al., 2004). Soluble proteins were precipitated with anti-NF-κB p65 (Santa Cruz Biotechnology, Santa Cruz, Calif.). […] Immune complexes were detected with horseradish peroxidase-conjugated secondary antibodies (GE Healthcare Biosciences, Piscataway, N.J.) and enhanced chemiluminescence (GE Healthcare).
MUC1-C associates with NF-κB p65. To determine whether MUC1 interacts with NF-κB, anti-NF-κB p65 precipitates from ZR-75-1 breast cancer cells were immunoblotted with an antibody against the MUC1-C subunit cytoplasmic domain. […] Similar findings were obtained with lysates from MCF-7 breast cancer cells, which also overexpress endogenous MUC1 (FIG. 1B). To determine whether the MUC1-N subunit is necessary for the association, studies were performed on U-937 cells that stably express exogenous MUC1-C and not MUC1-N (Agata et al., 2008).

Chain of purified recombinant STAT3 (P40763 whole entry, the tested form may be a part): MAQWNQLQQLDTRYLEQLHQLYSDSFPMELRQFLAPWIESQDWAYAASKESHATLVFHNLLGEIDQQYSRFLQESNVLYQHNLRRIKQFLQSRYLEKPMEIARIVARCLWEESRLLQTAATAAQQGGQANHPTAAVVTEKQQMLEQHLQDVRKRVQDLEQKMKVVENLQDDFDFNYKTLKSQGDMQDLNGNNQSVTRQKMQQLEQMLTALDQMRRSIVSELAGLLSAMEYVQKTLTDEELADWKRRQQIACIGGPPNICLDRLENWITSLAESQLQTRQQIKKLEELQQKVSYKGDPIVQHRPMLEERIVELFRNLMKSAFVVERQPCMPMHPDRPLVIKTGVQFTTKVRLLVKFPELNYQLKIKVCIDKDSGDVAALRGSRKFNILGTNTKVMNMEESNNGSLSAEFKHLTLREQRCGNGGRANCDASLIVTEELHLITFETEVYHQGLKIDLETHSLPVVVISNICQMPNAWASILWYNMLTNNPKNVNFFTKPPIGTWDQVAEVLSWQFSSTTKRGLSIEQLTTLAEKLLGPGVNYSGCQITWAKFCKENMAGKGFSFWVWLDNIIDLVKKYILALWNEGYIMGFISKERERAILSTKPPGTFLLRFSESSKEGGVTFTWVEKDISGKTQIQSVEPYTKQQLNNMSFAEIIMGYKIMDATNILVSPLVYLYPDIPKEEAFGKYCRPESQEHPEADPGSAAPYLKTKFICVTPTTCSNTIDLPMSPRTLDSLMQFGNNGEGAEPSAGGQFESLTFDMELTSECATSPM
T3 sequence (P40763 1-257): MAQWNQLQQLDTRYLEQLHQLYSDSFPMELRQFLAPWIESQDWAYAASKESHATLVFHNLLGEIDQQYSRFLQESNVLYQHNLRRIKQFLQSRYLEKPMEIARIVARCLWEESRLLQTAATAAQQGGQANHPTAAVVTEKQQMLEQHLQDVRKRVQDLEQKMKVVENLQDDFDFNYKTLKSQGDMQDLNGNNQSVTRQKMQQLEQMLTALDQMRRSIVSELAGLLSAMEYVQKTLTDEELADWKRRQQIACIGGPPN
T4 sequence (P40763 514-770): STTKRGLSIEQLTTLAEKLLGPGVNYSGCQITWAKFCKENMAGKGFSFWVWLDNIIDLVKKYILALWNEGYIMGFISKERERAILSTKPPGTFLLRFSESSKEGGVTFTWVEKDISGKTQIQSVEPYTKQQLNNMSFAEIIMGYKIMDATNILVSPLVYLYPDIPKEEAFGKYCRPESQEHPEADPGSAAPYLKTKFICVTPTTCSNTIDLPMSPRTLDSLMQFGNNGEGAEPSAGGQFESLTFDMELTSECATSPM
T5 sequence (P40763 2-770 limits assumed): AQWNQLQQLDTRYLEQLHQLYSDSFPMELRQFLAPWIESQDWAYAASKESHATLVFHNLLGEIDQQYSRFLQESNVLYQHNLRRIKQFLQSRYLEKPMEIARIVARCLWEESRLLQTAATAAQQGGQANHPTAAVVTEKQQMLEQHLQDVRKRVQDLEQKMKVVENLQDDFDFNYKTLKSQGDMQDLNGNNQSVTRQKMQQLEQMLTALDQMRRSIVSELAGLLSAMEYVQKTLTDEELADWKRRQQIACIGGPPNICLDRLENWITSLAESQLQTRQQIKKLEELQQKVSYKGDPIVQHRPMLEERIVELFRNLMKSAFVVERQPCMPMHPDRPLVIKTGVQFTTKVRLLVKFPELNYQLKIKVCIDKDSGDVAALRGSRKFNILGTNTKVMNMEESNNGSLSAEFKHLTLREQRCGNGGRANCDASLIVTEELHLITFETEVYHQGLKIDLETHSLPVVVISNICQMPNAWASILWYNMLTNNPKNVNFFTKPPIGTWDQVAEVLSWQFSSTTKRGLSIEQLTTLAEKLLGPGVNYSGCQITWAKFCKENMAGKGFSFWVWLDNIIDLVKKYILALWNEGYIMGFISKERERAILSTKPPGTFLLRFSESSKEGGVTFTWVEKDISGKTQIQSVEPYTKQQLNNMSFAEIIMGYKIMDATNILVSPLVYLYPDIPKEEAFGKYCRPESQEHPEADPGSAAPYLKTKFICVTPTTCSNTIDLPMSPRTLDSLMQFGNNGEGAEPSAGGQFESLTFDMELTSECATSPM

- binding result (GST-IκBα): no binding
B1: p65(1-180) (other, UniProt Q04206 1-180, looked up)
chain: MDELFPLIFPAEPAQASGPYVEIIEQPKQRGMRFRYKCEGRSAGSIPGERSTDTTKTHPTIKINGYTGPGTVRISLVTKDPPHRPHPHELVGKDCRDGFYEAELCPDRCIHSFQNLGIQCVKKRDLEQAISQRIQTNNNPFQVPIEEQRGDYDLNAVRLCFQVTVRDPSGRPLRLPPVLS
notes: range 1-180; Purified deletion mutant; also called purified p65(1-180)

- binding result [1]: no binding
- binding result [2]: no binding
B2: GST-MUC1-CD(1-45) (other)
chain: CQCRRKNYGQLDIFPARDTYHPMSEYPTYHTHGRYVPPSSTDRSP
modifications: cysteine pairing not given here; also: GST fusion
notes: Deletion mutant of GST-MUC1-CD; residues counted on the 72 amino acid cytoplasmic domain; not shown: glutathione S-transferase (GST) fusion moiety

- binding result [3]: no binding
- binding result [4]: no binding
B3: MUC1-CD (purified, GST moiety removed with thrombin) (other)
chain: CQCRRKNYGQLDIFPARDTYHPMSEYPTYHTHGRYVPPSSTDRSPYEKVSAGNGGSSLSYTNPAVAATSANL
notes: also called purified MUC1-CD; MUC1-C cytoplasmic domain

- binding result [5]: binds
- binding result [6]: binds
B4: MUC1 C-terminal subunit (MUC1-C), in cells (receptor)
chain: SVVVQLTLAFREGTINVHDVETQFNQYKTEAASRYNLTISDVSVSDVPFPFSAQSGAGVPGWGIALLVLVCVLVALAIVYLIALAVCQCRRKNYGQLDIFPARDTYHPMSEYPTYHTHGRYVPPSSTDRSPYEKVSAGNGGSSLSYTNPAVAATSANL
notes: Endogenous MUC1-C in lysates of ZR-75-1, MCF-7 and MCF-10A cells, or exogenous MUC1-C in U-937 cells and exogenous MUC1 in HeLa cells
